{"source": "patent US20120282183A1", "about": "(CANCER RESEARCH TECHNOLOGY, published 2012)", "target": "T1, human 5T4 oncofoetal glycoprotein (human, UniProt Q13641 32-420)", "T1 construct": "whole, on cells; also called h5T4; trophoblast glycoprotein", "T1 sequence (looked up)": "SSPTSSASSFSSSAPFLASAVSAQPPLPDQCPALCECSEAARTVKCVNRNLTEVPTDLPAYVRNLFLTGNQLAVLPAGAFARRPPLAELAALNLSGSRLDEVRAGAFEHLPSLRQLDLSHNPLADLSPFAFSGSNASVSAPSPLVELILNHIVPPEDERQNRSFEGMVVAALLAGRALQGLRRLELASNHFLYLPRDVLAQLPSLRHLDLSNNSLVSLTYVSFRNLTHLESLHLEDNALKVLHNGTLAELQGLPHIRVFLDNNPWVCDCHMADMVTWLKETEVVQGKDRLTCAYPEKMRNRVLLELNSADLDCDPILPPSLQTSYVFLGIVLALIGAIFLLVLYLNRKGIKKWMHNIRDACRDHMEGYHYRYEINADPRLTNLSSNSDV", "test": "summary of the pull down and Western blot experiments", "description": "Denistometric scans of western blots between approximately 60-140 kDa (5T4 probe) and 30-140 kDa (CXCR4 probe). […] Under reducing conditions, the epitope recognized by 5T4 antibodies is destroyed but CXCR4 at 46 kD is detectable on the reduced gels of the 5T4 pulldown, (not shown). Thus, specific pull downs but not the controls, probed with either anti-CXCR4 or anti-5T4 detected molecules migrating ≈130 kDa in all the tumor lines.\nWestern blots were carried out using a BioRad Mini-PROTEAN Tetra (Thermo Fisher) supplemented with protease and phosphatase inhibitor cocktails (Thermo Fisher). RIPA buffer (50 mM Tris-Cl pH 7.4, 150 mM NaCl, 1% NP40, 0.25% Na-deoxycholate, 1 mM PMSF and protease and phosphatase inhibitor cocktail) was used as an alternative method of cell lysis. The compound PD98059 (Thermo Fisher) was applied to cells to inhibit MEK1 at 100 μM for 1 h prior to CXCL12 stimulation. Other primary antibodies used were ERK1/2, phospho-ERK1/2 (Thr202/Tyr204/Thr185/Tyr187), AKT and phospho-AKT (Thr308) (Cell Signalling Technology) at 1:1000. Following secondary antibody labelling using appropriate HRP conjugates (AbSerotec) hybridizing bands were detected using SuperSignal West Dura (Thermo Fischer). […]"}
{"binder": "human CXCR4 (receptor, UniProt P61073 1-352, looked up, whole, on cells; Endogenous CXCR4 of human tumour cell lines, tested as unreduced solubilised membrane fractions (Western blot, pull down); also called chemokine (C-X-C motif) receptor 4) MEGISIYTSDNYTEEMGSGDYDSMKEPCFREENANFNKIFLPTIYSIIFLTGIVGNGLVILVMGYQKKLRSMTDKYRLHLSVADLLFVITLPFWAVDAVANWYFGNFLCKAVHVIYTVNLYSSVLILAFISLDRYLAIVHATNSQRPRKLLAEKVVYVGVWIPALLLTIPDFIFANVSEADDRYICDRFYPNDLWVVVFQFQHIMVGLILPGIVILSCYCIIISKLSHSKGHQKRKALKTTVILILAFFACWLPYYIGISIDSFILLEIIKQGCEFENTVHKWISITEALAFFHCCLNPILYAFLGAKFKTSAQHALTSVSRGSSLKILSKGKRGGHSSVSTESESSSFHSS", "values": [{"measurement": "binding result", "value": "binds"}]}
